Reference: the Immune Epitope Database (IEDB)

Legend:
HLA-A*68:02 = assay: IEDB peptide-MHC binding, purified MHC/competitive/fluorescence; filed as Kd, often an IC50 or EC50 that approximates it; ≥ and ≤ were set here for values at or beyond the usual limits of such assays
HLA-B*15:17 = assay: as above
HLA-B*39:01 = assay: as above
HLA-B*51:01 = assay: as above
HLA-B*27:03 = assay: as above
HLA-A*29:02 = assay: as above
HLA-A*26:01 = assay: as above
HLA-A*02:12 = assay: as above
HLA-A*02:11 = assay: as above
HLA-A*02:03 = assay: as above
HLA-A*02:01 = assay: as above
HLA-A*03:01 = assay: as above
HLA-A*02:16 = assay: as above
HLA-B*46:01 = assay: as above
HLA-A*02:19 = assay: as above
HLA-B*18:01 = assay: as above
HLA-B*57:01 = assay: as above
HLA-A*69:01 = assay: as above
HLA-B*15:01 = assay: as above
HLA-A*24:03 [1] = assay: as above
HLA-C*04:01 = assay: IEDB peptide-MHC binding, purified MHC/direct/fluorescence; filed as Kd, often an IC50 or EC50 that approximates it; ≥ and ≤ were set here for values at or beyond the usual limits of such assays
HLA-A*24:03 [2] = assay: as above; details: source organism: Bacillus anthracis
HLA-C*12:03 = assay: as above
HLA-C*03:03 = assay: as above
HLA-B*15:42 = assay: IEDB peptide-MHC binding, purified MHC/competitive/fluorescence; filed as Kd, often an IC50 or EC50 that approximates it; ≥ and ≤ were set here for values at or beyond the usual limits of such assays
HLA-B*45:06 = assay: as above
HLA-C*14:02 = assay: as above
HLA-C*05:01 = assay: IEDB peptide-MHC binding, purified MHC/direct/fluorescence; filed as Kd, often an IC50 or EC50 that approximates it; ≥ and ≤ were set here for values at or beyond the usual limits of such assays
HLA-B*83:01 = assay: IEDB peptide-MHC binding, purified MHC/competitive/fluorescence; filed as Kd, often an IC50 or EC50 that approximates it; ≥ and ≤ were set here for values at or beyond the usual limits of such assays
HLA-B*35:01 = assay: as above; details: source organism: Yersinia pestis Nepal516
HLA-A*23:01 = assay: as above
HLA-A*31:01 = assay: as above; details: source organism: Escherichia coli E110019
HLA-B*40:13 = assay: as above
HLA-B*27:20 = assay: as above
HLA-A*02:06 = assay: as above; details: source organism: Brucella suis 1330
HLA-A*32:07 = assay: as above
HLA-C*06:02 [3] = assay: IEDB peptide-MHC binding, purified MHC/direct/fluorescence; filed as Kd, often an IC50 or EC50 that approximates it; ≥ and ≤ were set here for values at or beyond the usual limits of such assays; details: source organism: SARS-CoV1
HLA-C*08:02 = assay: as above; details: source organism: Yersinia pestis CO92
HLA-C*07:02 = assay: as above; details: source organism: Yersinia pestis CO92
HLA-A*32:15 = assay: IEDB peptide-MHC binding, purified MHC/competitive/fluorescence; filed as Kd, often an IC50 or EC50 that approximates it; ≥ and ≤ were set here for values at or beyond the usual limits of such assays; details: source organism: Yersinia pestis CO92
HLA-C*06:02 [4] = assay: as above; details: source organism: Yersinia pestis CO92
HLA-A*68:23 = assay: as above; details: source organism: Yersinia pestis CO92
[5] = source organism: Giardia lamblia ATCC 50803
[6] = source organism: Mycobacterium tuberculosis F11
[7] = source organism: Vaccinia virus
[8] = source organism: Vibrio cholerae MAK 757
[9] = source organism: Yersinia pestis Nepal516
[10] = source organism: Escherichia coli E110019
[11] = source organism: Brucella suis 1330
[12] = source organism: Yersinia pestis CO92

ALGGSCHTT
Kd (HLA-A*68:02; [5]): ≥ 20 µM
Kd (HLA-B*15:17; [5]): ≥ 20 µM
Kd (HLA-B*39:01; [5]): ≥ 20 µM
Kd (HLA-B*51:01; [5]): ≥ 20 µM
Kd (HLA-B*27:03; [5]): ≥ 20 µM
Kd (HLA-A*29:02; [5]): ≥ 20 µM
Kd (HLA-A*26:01; [5]): ≥ 20 µM
Kd (HLA-A*02:12; [5]): ≥ 20 µM
Kd (HLA-A*02:11; [5]): ≥ 20 µM
Kd (HLA-A*02:03; [5]): ≥ 20 µM
Kd (HLA-A*02:01; [5]): ≥ 20 µM
Kd (HLA-A*03:01; [5]): ≥ 20 µM
Kd (HLA-A*02:16; [5]): ≥ 20 µM
Kd (HLA-B*46:01; [5]): ≥ 20 µM
Kd (HLA-A*02:19; [5]): 0.555 µM
Kd (HLA-B*18:01; [5]): ≥ 20 µM
Kd (HLA-B*57:01; [5]): ≥ 20 µM
Kd (HLA-A*69:01; [5]): ≥ 20 µM
Kd (HLA-B*15:01; [5]): ≥ 20 µM
Kd (HLA-A*24:03 [1]; [5]): ≥ 20 µM

AYPKWKFFL
Kd (HLA-C*04:01; source organism: Bacillus anthracis str. CDC 684): ≥ 20 µM
Kd (HLA-A*24:03 [2]): 0.0017 µM

FVAATGRPL
Kd (HLA-C*12:03; [6]): 0.095 µM
Kd (HLA-C*03:03; [6]): ≤ 0.001 µM
Kd (HLA-B*15:42; [6]): ≥ 5 µM
Kd (HLA-B*45:06; [6]): ≥ 5 µM
Kd (HLA-C*14:02; [6]): 0.0302 µM

FVDVIIIKV
Kd (HLA-C*05:01; [7]): ≥ 20 µM
Kd (HLA-C*04:01; [7]): ≥ 20 µM

IAAPNMIAV
Kd (HLA-C*12:03; [8]): 0.002 µM
Kd (HLA-C*05:01; [8]): 2.17 µM
Kd (HLA-C*03:03; [8]): ≤ 0.001 µM
Kd (HLA-B*46:01; [8]): 0.578 µM

MVLSGTLAY
Kd (HLA-B*15:42; [9]): ≥ 5 µM
Kd (HLA-B*45:06; [9]): ≥ 5 µM
Kd (HLA-B*83:01; [9]): ≥ 5 µM
Kd (HLA-B*35:01): 0.0012 µM
Kd (HLA-A*26:01; [9]): 0.506 µM
Kd (HLA-C*14:02; [9]): 0.123 µM

RAFWGQVQK
Kd (HLA-A*68:02; [10]): ≥ 20 µM
Kd (HLA-B*39:01; [10]): ≥ 20 µM
Kd (HLA-B*51:01; [10]): ≥ 20 µM
Kd (HLA-A*26:01; [10]): ≥ 20 µM
Kd (HLA-A*23:01; [10]): ≥ 20 µM
Kd (HLA-A*02:12; [10]): ≥ 20 µM
Kd (HLA-A*02:11; [10]): ≥ 20 µM
Kd (HLA-A*02:03; [10]): ≥ 20 µM
Kd (HLA-A*02:01; [10]): ≥ 20 µM
Kd (HLA-A*02:16; [10]): ≥ 20 µM
Kd (HLA-B*46:01; [10]): ≥ 20 µM
Kd (HLA-A*02:19; [10]): ≥ 20 µM
Kd (HLA-B*18:01; [10]): ≥ 20 µM
Kd (HLA-B*57:01; [10]): ≥ 20 µM
Kd (HLA-A*31:01): 0.0027 µM
Kd (HLA-A*69:01; [10]): ≥ 20 µM
Kd (HLA-B*15:01; [10]): ≥ 20 µM
Kd (HLA-A*24:03 [1]; [10]): ≥ 20 µM

RLDPRLAPV
Kd (HLA-C*03:03; source organism: Mycobacterium tuberculosis variant bovis BCG str. Pasteur 1173P2): ≥ 20 µM

RQNAPFEPI
Kd (HLA-B*15:42; [11]): ≥ 5 µM
Kd (HLA-B*45:06; [11]): ≥ 5 µM
Kd (HLA-B*40:13; [11]): 0.0536 µM
Kd (HLA-B*27:20; [11]): 0.0011 µM
Kd (HLA-B*83:01; [11]): ≥ 5 µM
Kd (HLA-A*02:06): 0.0012 µM
Kd (HLA-A*02:01; [11]): 0.0834 µM
Kd (HLA-A*32:07; [11]): 0.0119 µM

SQLPPACPV
Kd (HLA-B*15:17; source organism: Homo sapiens): ≥ 20 µM
Kd (HLA-B*51:01; source organism: Homo sapiens): ≥ 20 µM
Kd (HLA-B*27:03; source organism: Homo sapiens): ≥ 20 µM
Kd (HLA-A*29:02; source organism: Homo sapiens): ≥ 20 µM
Kd (HLA-A*26:01; source organism: Homo sapiens): ≥ 20 µM
Kd (HLA-A*23:01; source organism: Homo sapiens): ≥ 20 µM
Kd (HLA-A*02:12; source organism: Homo sapiens): 0.17 µM
Kd (HLA-A*02:03; source organism: Homo sapiens): ≥ 20 µM
Kd (HLA-A*02:01; source organism: Homo sapiens): 0.0306 µM
Kd (HLA-A*03:01; source organism: Homo sapiens): ≥ 20 µM
Kd (HLA-A*02:16; source organism: Homo sapiens): ≥ 20 µM
Kd (HLA-B*46:01; source organism: Homo sapiens): ≥ 20 µM
Kd (HLA-A*02:19; source organism: Homo sapiens): ≥ 20 µM
Kd (HLA-B*18:01; source organism: Homo sapiens): ≥ 20 µM
Kd (HLA-B*57:01; source organism: Homo sapiens): ≥ 20 µM
Kd (HLA-A*69:01; source organism: Homo sapiens): ≥ 20 µM
Kd (HLA-A*24:03 [1]; source organism: Homo sapiens): ≥ 20 µM

SYCNGVREL
Kd (HLA-C*06:02 [3]): 0.133 µM
Kd (HLA-C*04:01; source organism: SARS-CoV1): ≥ 20 µM

YSFSRAYTL
Kd (HLA-C*05:01; [12]): ≥ 20 µM
Kd (HLA-C*08:02): ≥ 20 µM
Kd (HLA-C*07:02): 0.347 µM
Kd (HLA-A*32:15): 0.0237 µM
Kd (HLA-B*15:42; [12]): ≥ 5 µM
Kd (HLA-B*39:01; [12]): 0.0039 µM
Kd (HLA-B*45:06; [12]): ≥ 5 µM
Kd (HLA-B*40:13; [12]): 0.0063 µM
Kd (HLA-B*27:20; [12]): 0.0315 µM
Kd (HLA-B*83:01; [12]): ≥ 5 µM
Kd (HLA-C*06:02 [4]): 0.0478 µM
Kd (HLA-C*14:02; [12]): 0.125 µM
Kd (HLA-A*32:07; [12]): 0.165 µM
Kd (HLA-A*68:23): 0.0093 µM
